Patent US20220363757A1 (SYMPHOGEN A S, published 2022)

T1: human LAG-3 domain 1-2 Fc fusion, chimeric construct #9 (mutated region AA 66-71) (human, UniProt P18627 23-266)
T1 construct: not shown: human IgG1 Fc, AA P101-K330
T1 chain: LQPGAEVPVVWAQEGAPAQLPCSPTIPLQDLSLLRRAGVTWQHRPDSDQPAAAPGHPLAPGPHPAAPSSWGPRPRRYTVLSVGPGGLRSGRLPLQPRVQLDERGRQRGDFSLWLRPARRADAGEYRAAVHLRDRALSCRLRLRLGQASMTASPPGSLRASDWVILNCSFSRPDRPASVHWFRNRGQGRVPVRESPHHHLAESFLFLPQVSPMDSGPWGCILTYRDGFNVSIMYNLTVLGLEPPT

T2: human LAG-3 domain 1-2 Fc fusion, chimeric construct #10 (mutated region AA 70-77) (human, UniProt P18627 23-266)
T2 construct: 'Q71Q' copied as printed; construct #9 prints P71Q for the same position
T2 chain: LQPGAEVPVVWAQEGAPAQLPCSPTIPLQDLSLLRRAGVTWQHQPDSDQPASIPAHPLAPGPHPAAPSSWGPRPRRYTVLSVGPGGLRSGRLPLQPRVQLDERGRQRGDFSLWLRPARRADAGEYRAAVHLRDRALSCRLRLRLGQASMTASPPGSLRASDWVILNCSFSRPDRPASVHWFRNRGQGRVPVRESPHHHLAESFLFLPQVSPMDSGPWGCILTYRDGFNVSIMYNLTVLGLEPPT

T3: human LAG-3 domain 1-2 Fc fusion, chimeric construct #5 (mutated region AA 46-51) (human, UniProt P18627 23-266)
T3 construct: not shown: human IgG1 Fc, AA P101-K330
T3 chain: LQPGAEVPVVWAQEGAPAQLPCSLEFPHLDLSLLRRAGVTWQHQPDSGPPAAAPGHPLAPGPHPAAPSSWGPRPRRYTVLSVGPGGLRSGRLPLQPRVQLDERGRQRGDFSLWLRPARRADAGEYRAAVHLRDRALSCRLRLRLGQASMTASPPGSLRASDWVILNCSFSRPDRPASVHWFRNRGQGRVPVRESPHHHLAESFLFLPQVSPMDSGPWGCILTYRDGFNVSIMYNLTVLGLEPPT

T4: human LAG-3 domain 1-2 Fc fusion, chimeric construct #26 (mutated region AA 157-161) (human, UniProt P18627 23-266)
T4 construct: not shown: human IgG1 Fc, AA P101-K330
T4 chain: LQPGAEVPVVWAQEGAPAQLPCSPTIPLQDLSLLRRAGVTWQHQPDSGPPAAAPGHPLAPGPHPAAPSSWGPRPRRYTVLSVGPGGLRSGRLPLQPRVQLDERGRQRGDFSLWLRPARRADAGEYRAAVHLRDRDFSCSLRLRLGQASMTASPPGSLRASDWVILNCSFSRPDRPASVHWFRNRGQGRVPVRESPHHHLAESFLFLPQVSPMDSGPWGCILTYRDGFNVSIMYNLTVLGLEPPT

T5: human LAG-3 domain 1-2 Fc fusion, chimeric construct #23 (mutated region AA 148-152) (human, UniProt P18627 23-266)
T5 construct: not shown: human IgG1 Fc, AA P101-K330
T5 chain: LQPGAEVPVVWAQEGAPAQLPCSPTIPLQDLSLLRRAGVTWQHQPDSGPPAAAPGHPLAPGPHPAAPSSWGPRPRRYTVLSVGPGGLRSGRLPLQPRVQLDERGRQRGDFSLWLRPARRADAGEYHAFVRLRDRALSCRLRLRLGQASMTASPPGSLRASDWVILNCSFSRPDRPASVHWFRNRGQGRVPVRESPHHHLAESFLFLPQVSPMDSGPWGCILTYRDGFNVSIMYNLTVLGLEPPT

T6: human LAG-3 domain 1-2 Fc fusion, chimeric construct #14 (mutated region AA 88-97) (human, UniProt P18627 23-266)
T6 construct: not shown: human IgG1 Fc, AA P101-K330
T6 chain: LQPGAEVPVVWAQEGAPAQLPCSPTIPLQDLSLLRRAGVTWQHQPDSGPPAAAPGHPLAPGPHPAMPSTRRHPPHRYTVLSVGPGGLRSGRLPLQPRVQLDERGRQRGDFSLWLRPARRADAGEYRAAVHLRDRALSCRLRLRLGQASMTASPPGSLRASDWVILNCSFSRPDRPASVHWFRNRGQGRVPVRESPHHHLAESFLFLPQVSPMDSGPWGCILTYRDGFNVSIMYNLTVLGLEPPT

T7: human LAG-3 domain 1-2 Fc fusion, chimeric construct #27 (mutated region AA 161-166) (human, UniProt P18627 23-266)
T7 construct: not shown: human IgG1 Fc, AA P101-K330
T7 chain: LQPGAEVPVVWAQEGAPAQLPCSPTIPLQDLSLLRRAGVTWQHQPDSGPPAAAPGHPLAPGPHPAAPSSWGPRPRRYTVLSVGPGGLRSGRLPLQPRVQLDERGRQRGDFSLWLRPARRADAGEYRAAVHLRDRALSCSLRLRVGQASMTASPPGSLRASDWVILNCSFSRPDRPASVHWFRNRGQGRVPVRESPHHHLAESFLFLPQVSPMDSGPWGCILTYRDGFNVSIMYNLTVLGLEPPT

T8: human LAG-3 domain 1-2 Fc fusion, chimeric construct #4 (mutated region AA 40-47) (human, UniProt P18627 23-266)
T8 construct: not shown: human IgG1 Fc, AA P101-K330
T8 chain: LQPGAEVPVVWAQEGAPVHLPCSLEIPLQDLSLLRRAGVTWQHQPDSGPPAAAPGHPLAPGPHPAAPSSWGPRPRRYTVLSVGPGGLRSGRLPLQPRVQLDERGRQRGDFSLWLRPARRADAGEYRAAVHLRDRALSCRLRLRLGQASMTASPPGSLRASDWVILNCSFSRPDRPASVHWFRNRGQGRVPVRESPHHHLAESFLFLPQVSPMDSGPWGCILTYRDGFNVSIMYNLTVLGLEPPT


Experiments:
Assay in all cases: SPR, Fab over captured mutant LAG-3-Fc;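 note: LAG-3 fusion proteins captured on an anti-human IgG Fc sensor chip and read on an IBIS MX96 biosensor, Fab association and dissociation each 15 min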
[1] = target: T1, human LAG-3 domain 1-2 Fc fusion, …
Procedure: (§1) The LAG-3 fusion proteins were immobilized onto a G-a-hu-IgG Fc SensEye® (Ssens BV, The Netherlands) for 15 minutes using a Continuous Flow Microspotter (CFM, Wasatch Microfluidics, Salt Lake City, US). After spotting, the SensEye® was positioned in an IBIS MX96 biosensor and captured proteins were evaluated for binding affinity. […] Fab association was performed for 15 minutes and antigen dissociation was performed for 15 minutes. The recorded binding responses were fitted to a simple Langmuir 1:1 binding model with Scrubber 2 software for calculation of the on-rate (kon or ka), off-rate (koff or kd) and affinity (KD) constants.

[2] = target: T2, human LAG-3 domain 1-2 Fc fusion, …
Procedure: as §1

[3] = target: T3, human LAG-3 domain 1-2 Fc fusion, …
Procedure: as §1

[4] = target: T4, human LAG-3 domain 1-2 Fc fusion, …
Procedure: as §1

[5] = target: T5, human LAG-3 domain 1-2 Fc fusion, …
Procedure: as §1

[6] = target: T6, human LAG-3 domain 1-2 Fc fusion, …
Procedure: as §1

[7] = target: T7, human LAG-3 domain 1-2 Fc fusion, …
Procedure: as §1

[8] = target: T8, human LAG-3 domain 1-2 Fc fusion, …
Procedure: as §1

| Binder | KD mutant/KD wild type [1] [fold] | KD mutant/KD wild type [2] [fold] | KD mutant/KD wild type [3] [fold] | KD mutant/KD wild type [4] [fold] | KD mutant/KD wild type [5] [fold] | binding result [6] | KD mutant/KD wild type [7] [fold] | KD mutant/KD wild type [8] [fold] | binding result [3] | binding result [8] | binding result [4] | binding result [5] | KD mutant/KD wild type [6] [fold] |
| --- | --- | --- | --- | --- | --- | --- | --- | --- | --- | --- | --- | --- | --- |
| Fab fragment of antibody 15431 (Fab, V domains shown, not shown: a dimerising Fc or GST, monomeric Fab made by GingisKHAN digestion of the IgG1) VH: QVQLQQSGPGLVKPSQTLSLTCAISGDSVSSNSAAWNWIRQSPSRGLEWLGRTYYRSKWYNDYAVSVKSRITINPDTSKNQFSLQLNSVTPEDTAVYYCARDDDWNDFDYWGQGTLVTVSS VL: EIVLTQSPATLSLSPGERATLSCRASQSVSSYLAWYQQKPGQAPRLLIYDASNRATGIPARFSGSGSGTDFTLTISSLEPEDFAVYYCQQRSNWPLTFGGGTKVEIKR | 0.4 | 1.1 | – | 0.6 | 3.5 | no binding (tested: 300 nM) | 1.3 | – | no binding (tested: 300 nM) | no binding (tested: 300 nM) | – | – | – |
| Fab fragment of antibody 15011 (Fab, V domains shown, not shown: a dimerising Fc or GST, monomeric Fab made by GingisKHAN digestion of the IgG1) VH: EVQLLESGGGLVQPGGSLRLSCAASGFDFRSYAMMWVRQAPGKGLEWVGGINGEVGGSNTYYAPAVKGRATISRDNSKNTLYLQMNSLRAEDTAVYYCVKGAGACGICNDDIDAWGQGTLVTVSS VL: SYELTQDPAVSVALGQTVRITCSGAGSYAGSYYYGWHQQKPGQAPVTVIYDNDKRPSNIPDRFSGSSSGNTASLTITGAQAEDEADYYCGSTNDNDDGGLFGSGTKVTVLG | 0.7 | 1.8 | 0.5 | 0.7 | 2 | – | 2.3 | 0.5 | – | – | – | – | 0.6 |

Now from value to binder:

| KD mutant/KD wild type [1] [fold] | KD mutant/KD wild type [2] [fold] | KD mutant/KD wild type [3] [fold] | KD mutant/KD wild type [4] [fold] | KD mutant/KD wild type [5] [fold] | binding result [6] | KD mutant/KD wild type [7] [fold] | KD mutant/KD wild type [8] [fold] | binding result [3] | binding result [8] | binding result [4] | binding result [5] | KD mutant/KD wild type [6] [fold] | Binder |
| --- | --- | --- | --- | --- | --- | --- | --- | --- | --- | --- | --- | --- | --- |
| 3.9 | 1.1 | 2.7 | 1.1 | 2.5 | no binding (tested: 300 nM) | 0.8 | 3.9 | – | – | – | – | – | Fab fragment of antibody 15532 (Fab, V domains shown, not shown: a dimerising Fc or GST, monomeric Fab made by GingisKHAN digestion of the IgG1) VH: QVQLQQWGAGLLRPSETLSLTCAVYGESFSGYYWNWIRQPPGKGLEWIGEINHSGSTNYNPSLKSRVTISVDTSKTQFSLKLSSVTAADTAVYYCARGWDLLDWNDYWNEYWGQGTLVTVSS VL: EIVLTQSPATLSLSPGERATLSCRASQSVSSYLAWYQQKPGQAPRLLIYDASNRATGIPARFSGSGSGTDFTLTISSLEPEDFAVYYCQQRSNWPLTFGGGTKVEIKR |
| 1.1 | 0.7 | – | – | – | – | 1.7 | – | no binding (tested: 300 nM) | no binding (tested: 300 nM) | no binding (tested: 300 nM) | no binding (tested: 300 nM) | 0.7 | Fab fragment of antibody 15572 (Fab, V domains shown, not shown: a dimerising Fc or GST, monomeric Fab made by GingisKHAN digestion of the IgG1) VH: QLQLQESGPGLVKPSETLSLTCTVSGDSISSSSYYWGWIRQPPGKGLEWIGSIFYSGNTYYNPSLKSRVTISVDTSKNQFSLKLSSVTAADTAVYYCAREDDFLTDYYGAFDIWGQGTMVTVSS VL: not shown |
